The target of the test is TET2 catalytic domain (TET2CD: a.a. 916-1921), recombinant from Sf9. The experiment in a line: pull-down.

Here are results for 1 molecule from PMC3684361.

As a reminder, the stoichiometry N is a count of units in the complex or per binding partner.

B1: OGT, full-length, recombinant from Sf9 (enzyme)
chain: MASSVGNVADSTEPTKRMLSFQGLAELAHREYQAGDFEAAERHCMQLWRQEPDNTGVLLLLSSIHFQCRRLDRSAHFSTLAIKQNPLLAEAYSNLGNVYKERGQLQEAIEHYRHALRLKPDFIDGYINLAAALVAAGDMEGAVQAYVSALQYNPDLYCVRSDLGNLLKALGRLEEAKACYLKAIETQPNFAVAWSNLGCVFNAQGEIWLAIHHFEKAVTLDPNFLDAYINLGNVLKEARIFDRAVAAYLRALSLSPNHAVVHGNLACVYYEQGLIDLAIDTYRRAIELQPHFPDAYCNLANALKEKGSVAEAEDCYNTALRLCPTHADSLNNLANIKREQGNIEEAVRLYRKALEVFPEFAAAHSNLASVLQQQGKLQEALMHYKEAIRISPTFADAYSNMGNTLKEMQDVQGALQCYTRAIQINPAFADAHSNLASIHKDSGNIPEAIASYRTALKLKPDFPDAYCNLAHCLQIVCDWTDYDERMKKLVSIVADQLEKNRLPSVHPHHSMLYPLSHGFRKAIAERHGNLCLDKINVLHKPPYEHPKDLKLSDGRLRVGYVSSDFGNHPTSHLMQSIPGMHNPDKFEVFCYALSPDDGTNFRVKVMAEANHFIDLSQIPCNGKAADRIHQDGIHILVNMNGYTKGARNELFALRPAPIQAMWLGYPGTSGALFMDYIITDQETSPAEVAEQYSEKLAYMPHTFFIGDHANMFPHLKKKAVIDFKSNGHIYDNRIVLNGIDLKAFLDSLPDVKIVKMKCPDGGDNADSSNTALNMPVIPMNTIAEAVIEMINRGQIQITINGFSISNGLATTQINNKAATGEEVPRTIIVTTRSQYGLPEDAIVYCNFNQLYKIDPSTLQMWANILKRVPNSVLWLLRFPAVGEPNIQQYAQNMGLPQNRIIFSPVAPKEEHVRRGQLADVCLDTPLCNGHTTGMDVLWAGTPMVTMPGETLASRVAASQLTCLGCLELIAKNRQEYEDIAVKLGTDLEYLKKVRGKVWKQRISSPLFNTKQYTMELERLYLQMWEHYAAGNKPDHMIKPVEVTESA
For B1, the stoichiometry N was found to be 1.
